This note sets out measurements from patent US20240425828.

The target of series [1] is Prototype foamy virus integrase (PFV IN) wild type, tetrameric intasome (Prototype foamy virus) (UniProt P14350). The following applies: smTIRF FRET, stalling at gap; 110 mM NaCl, 2 mM MgSO4, 24 C.
Series [2] has the same target. Particulars: smTIRF lifetime at physiological buffer; searches 1.6 kb; integration rare.

Substance 60 bp target DNA with 1 or 2 base gap had a binding (% of search events with integration) in series [1] of 20.

Turning to 23 kb naked linear DNA, in series [2], the binding is 2.1 s.
